In assay [1] the target is T1, mouse calmodulin (mouse, UniProt P0DP26 1-149). The assay can be described thus: SPR; 1 mM EGTA (no Ca2+).
The target in assay [2] is T1, mouse calmodulin. The assay can be described thus: SPR; 1 mM EGTA (no Ca2+). This is another data set of the same source.

No end group written: not given here. *: point of attachment. Biotin = O=C1N[C@H]2[C@H](CS[C@H]2CCCCC(=O)*)N1

The term koff denotes the rate constant with which the complex falls apart. A higher koff goes with a short-lived complex. As a reminder, the Kd is the constant that tells how readily two partners part at equilibrium. A high value points to a looser complex.

In the assay with mouse calmodulin [1], Biotin-GGSGGSPKCYMILFYPERNTSAYFNSMIQGYTMRKS [biotin-mT1r2 CT peptide (cytosolic C-terminal region of mouse taste receptor type 1 subunit 2)] displayed a koff of 0.00207 s⁻¹. Besides, the Kd with mouse calmodulin [2] stood at 9.7 µM.

Values taken from article PMC11033526 (2023).
